The text below walks through data of the supplement of paper PMC9170038.

For this data set, the system named is MS2 coat protein. Put plainly: apparent KD of MS2 coat protein; designed switch direction (-1 OFF switch, 1 ON switch): 1; higher = weaker reporter binding. An outline of the steps:
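On Illumina chips, designed RNA switches with common flanks were made by stalled E. coli RNA polymerase. Titrations with SNAP-549-labelled MS2 coat protein, doubling from 0.7 or 1.5 nM to 3 µM, were done with no input, with 200 uM small-molecule ligand, or with an oligonucleotide input. Apparent KD is the median per design over clusters, from curve fits of normalised cluster fluorescence.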

Where [1] appears, read: input ligand: microRNA oligo, concentration not stated.

With “GUUACAUGAGGAUCACCCAUGUAUGUGUGGGAGUAAGUGUCUUAGGAUAUCUAUUAUUUUAAUUAAGAGAAGGAAGAUUGUUGU [JMF's solution 20] (Eterna round: R96, puzzle: Same State NG 3)”, the “apparent KD of MS2 coat protein” value worked out at 0.0986 µM (input ligand: FMN 200 uM), 0.113 µM under setting [1] and 0.122 µM (input ligand: none).
For “GUUACAUGAGGAUCACCCAUGUAUGUGUGGGAGUAAGUGUCUUAGGAUAUCUGAUAUUUAAUUUAAGAGAAGGAAGAUUGUUGU [JMF's solution 29] (Eterna round: R96, puzzle: Same State NG 3)”, in that order: 0.119 µM, 0.0696 µM and 0.0855 µM.
As to “GUUACAUGAGGAUCACCCAUGUAUGUGUGGGAGUAAGUGUCUUAGGAUAUCUGUGAUUUAAUUUAAGAGAAGGAAGAUUGUUGU [JMF's solution 32] (Eterna round: R96, puzzle: Same State NG 3)”, the “apparent KD of MS2 coat protein” value is 0.126 µM (input ligand: FMN 200 uM), 0.0716 µM under setting [1] and 0.0961 µM (input ligand: none).
In the case of “GUUACAUGAGGAUCACCCAUGUGUGUGUGGGAGUGAGUGGCUUAGGAUAUCUAUGAUUUUAGUUGAGAGAAGGAGGAUUGCUGU [SS-NG3-LRO08] (Eterna round: R96, puzzle: Same State NG 3)”, the “apparent KD of MS2 coat protein” value runs as follows: (input ligand: FMN 200 uM) 0.439 µM; under setting [1], 0.158 µM; (input ligand: none) 0.347 µM.
For “GUUAGGAAUCUAGCAAACAUGAGGAUCACCCAUGUAAGUGGGAAGGAUAUGGUACAGAAACUGUACCAGAAGGUCUUAUUAAUU [Omei SS(NG) 3 AV1] (Eterna round: R96, puzzle: Same State NG 3)”, in that order: 0.128 µM, 0.246 µM and 0.306 µM.
“UAAAAUAACACAGGAUAUGCAGACAACUCGUCGGCAGAAGGGUGAGACAUGAGGAUCACCCAUGUAAAAUAAGGGCGCCGCCCG [Diatera] (Eterna round: R96, puzzle: Same State NG 1)”: the “apparent KD of MS2 coat protein” value runs as follows: (input ligand: FMN 200 uM) 0.995 µM; under setting [1], 0.219 µM; (input ligand: none) 0.777 µM.
Regarding “UAAAUACAUGAGGAUCACCCAUGUCAAAAGACAUGAGGAUAUGUACAGACUUCGGUCUGUACAGAAGGCAUGAAUA [salish99_ss1_r3_096] (Eterna round: R96, puzzle: Same State 1)”, the “apparent KD of MS2 coat protein” value under setting [1] is 0.417 µM.
As to “UAAAUACAUGAGGAUCACCCAUGUCAAAAGACAUGAGGAUAUGUACAGACUUCGGUCUGUACAGAAGGCAUGAAUA [salish99_ss1_r3_096] (puzzle: Same State 1)”, the “apparent KD of MS2 coat protein” value (Eterna round: R95, input ligand: FMN 200 uM) is 0.0344 µM; the “apparent KD of MS2 coat protein” value (Eterna round: R95, input ligand: microRNA oligo, concentration not stated) stood at 0.294 µM; the “apparent KD of MS2 coat protein” value (Eterna round: R95, input ligand: none) came to 0.566 µM.
On to “UAAGGACAUGAGGAUCACCCAUGUGCUUCAUAUGGAGAAUCUCAGGAUAUCCUGAGGAUCACCCAGGAGAAGGGAGAUCCGAGG (Eterna round: R96, puzzle: Same State NG 3)”, for which the “apparent KD of MS2 coat protein” value by setting is: (input ligand: FMN 200 uM) 0.288 µM; under setting [1], 0.191 µM; (input ligand: none) 0.225 µM.
The corresponding values for “UAAGGACAUGAGGAUCACCCAUGUGCUUCAUAUGGAGAAUCUCAGGAUAUGCUGAGGAUCACCCAGCAGAAGGGAGAUCCGAGG (Eterna round: R96, puzzle: Same State NG 3)” are 0.0719 µM, 0.093 µM and 0.12 µM.
The corresponding values for “UAAUUAAAGCAAGGAUAUCACGUCGAUUAGACGUGAGAAGGUGCUCCUUACAUGAGGAUCACCCAUGUAUAACAUGAAUAAUUA [SSNG1/10-B2] (Eterna round: R96, puzzle: Same State NG 1)” are 0.169 µM, 0.522 µM and 0.792 µM.
